Data published in article PMC11973759 (Journal for Immunotherapy of Cancer, 2025).
Where no end group is shown, it is not given here.

B1: biotinylated TAMpep (peptide)
chain: VLTTGLPALISWIKRKRQQ
modifications: also: biotin, position not given here

Experiments:
[1] = molecular target: CD18 cysteine-rich domain (Cloud-Clone); experiment: SPR
biotinylated TAMpep = molecular target: B1; experiment: SPR

Binder | Kd [1] | Kd (biotinylated TAMpep)
B1 | 0.185 nM | –
CD18 I-domain (Cloud-Clone) (domain or fragment) GYPIDLYYLMDLSYSMLDDLRNVKKLGGDLLRALNEITESGRIGFGSFVDKTVLPFVNTHPDKLRNPCPNKEKECQPPFAFRHVLKLTNNSNQFQTEVGKQLISGNLDAPEGGLDAMMQVAACPEEIGWRNVTRLLVFATDDGFHFAGDGKLGAILTPNDGRCHLEDNLYKRSNEFDYPSVGQLAHKLAENNIQPIFAVTSRMVKTYEKLTEIIPKSAVGELSEDSSNVVHLIKNAYNKL | – | 4.7 nM
